T1: human S100A8/A9 heterodimeric antigen, His-tagged (hS100A8/A9-His) (human, UniProt P05109 1-93; P06702 1-114)
T1 sequence 1: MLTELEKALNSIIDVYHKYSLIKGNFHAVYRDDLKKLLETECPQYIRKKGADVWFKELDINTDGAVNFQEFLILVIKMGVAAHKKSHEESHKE
T1 sequence 2: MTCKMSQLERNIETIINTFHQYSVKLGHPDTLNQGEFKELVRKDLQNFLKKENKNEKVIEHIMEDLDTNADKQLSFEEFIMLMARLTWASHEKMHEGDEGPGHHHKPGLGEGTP

B1: CM-82 (antibody, human IgG4 S228P, lambda, V domains shown)
VH: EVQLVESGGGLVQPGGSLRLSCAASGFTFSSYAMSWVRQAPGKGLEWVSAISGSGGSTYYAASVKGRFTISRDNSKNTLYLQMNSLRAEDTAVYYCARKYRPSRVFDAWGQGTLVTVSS
VL: SYELTQPPSVSVAPGQTARITCSGDALGDKYASWYQQKPGQAPVLVIYEDAKRPWGIPERFSGSNSGNTATLTISGTQAEDEADYYCQSNDADAVWVFGGGTKLTVLG
B2: CM-118 (antibody, human IgG4 S228P, lambda, V domains shown)
VH: EVQLVESGGGLVQPGGSLRLSCAASGFTFSDYAMSWVRQAPGKGLEWVSAISGSGGSTYYAASVKGRFTISRDNSKNTLYLQMNSLRAEDTAVYYCARKYRPSRVFDHWGQGTLVTVSS
VL: B1 VL with W55S, V95W
B3: CM-95 (antibody, human IgG4 S228P, lambda, V domains shown)
VH: B2 VH with H108A
VL: B1 VL with D50H, A51H, W55S
B4: CM-113 (antibody, human IgG4 S228P, lambda, V domains shown)
VH: B2 VH with D31S, T58H, H108A
VL: B1 VL with G28H, S33A, W55S
B5: CM-110 (antibody, human IgG4 S228P, lambda, V domains shown)
VH: B2 VH with D31S, S35A, H108A
VL: B1 VL with G28H, W55S
B6: CM-100 (antibody, human IgG4 S228P, lambda, V domains shown)
VH: B2 VH with T58H, H108A
VL: B1 VL with G28H, W55S
B7: CM-115 (antibody, human IgG4 S228P, lambda, V domains shown)
VH: B2 VH with F29W, H108A
VL: B1 VL with W55S, V95W
B8: CM-102 (antibody, human IgG4 S228P, lambda, V domains shown)
VH: B2 VH with T58H, H108A
VL: B1 VL with W55S, V95W
B9: CM-91 (antibody, human IgG4 S228P, lambda, V domains shown)
VH: B2 VH with H108A
VL: B1 VL with G28H, S33A, W55S
B10: CM-109 (antibody, human IgG4 S228P, lambda, V domains shown)
VH: B2 VH with T58H, H108A
VL: B1 VL with G28H, D50H, A51H, W55S
B11: CM-106 (antibody, human IgG4 S228P, lambda, V domains shown)
VH: B2 VH with T58H, H108A
VL: B1 VL with G28H, W55S, V95Y
B12: CM-105 (antibody, human IgG4 S228P, lambda, V domains shown)
VH: B2 VH with T58H, H108A
VL: B1 VL with G28H, S33A, W55S
B13: CM-94 (antibody, human IgG4 S228P, lambda, V domains shown)
VH: B2 VH with H108A
VL: B1 VL with G28H, D50H, A51H, W55S
B14: CM-117 (antibody, human IgG4 S228P, lambda, V domains shown)
VH: B2 VH with H108C
VL: B1 VL with W55S, V95W
B15: CM-83 (antibody, human IgG4 S228P, lambda, V domains shown)
VH: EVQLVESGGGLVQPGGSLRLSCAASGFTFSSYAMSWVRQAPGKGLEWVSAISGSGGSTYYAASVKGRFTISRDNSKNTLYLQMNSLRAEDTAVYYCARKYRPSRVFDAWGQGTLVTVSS
VL: B1 VL with W55D
B16: CM-116 (antibody, human IgG4 S228P, lambda, V domains shown)
VH: B2 VH with H108F
VL: B1 VL with W55S, V95W
B17: CM-101 (antibody, human IgG4 S228P, lambda, V domains shown)
VH: B2 VH with T58H, H108A
VL: B1 VL with S33A, W55S
B18: CM-84 (antibody, human IgG4 S228P, lambda, V domains shown)
VH: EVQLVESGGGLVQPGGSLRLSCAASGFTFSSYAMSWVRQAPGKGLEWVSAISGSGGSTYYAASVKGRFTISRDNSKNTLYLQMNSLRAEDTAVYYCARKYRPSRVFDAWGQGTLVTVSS
VL: B1 VL with W55D, V95Y
B19: CM-96 (antibody, human IgG4 S228P, lambda, V domains shown)
VH: B2 VH with H108A
VL: B1 VL with A32M, W55S, V95W
B20: CM-97 (antibody, human IgG4 S228P, lambda, V domains shown)
VH: B2 VH with H108A
VL: B1 VL with W55Y, V95W
B21: CM-88 (antibody, human IgG4 S228P, lambda, V domains shown)
VH: B2 VH with H108A
VL: B1 VL with W55S, V95R
B22: CM-98 (antibody, human IgG4 S228P, lambda, V domains shown)
VH: B2 VH with H108A
VL: B1 VL with V95W
B23: CM-107 (antibody, human IgG4 S228P, lambda, V domains shown)
VH: B2 VH with T58H, H108A
VL: B1 VL with D50H, A51H, W55S
B24: CM-108 (antibody, human IgG4 S228P, lambda, V domains shown)
VH: B2 VH with T58H, H108A
VL: B1 VL with W55D, V95Y
B25: CM-93 (antibody, human IgG4 S228P, lambda, V domains shown)
VH: B2 VH with H108A
VL: B1 VL with W55D, V95Y
B26: CM-114 (antibody, human IgG4 S228P, lambda, V domains shown)
VH: B2 VH with D31S, T58H, H108A
VL: B1 VL with D50H, A51H, W55S
B27: CM-119 (antibody, human IgG4 S228P, lambda, V domains shown)
VH: B2 VH with H108Y
VL: B1 VL with W55S, V95W
B28: CM-92 (antibody, human IgG4 S228P, lambda, V domains shown)
VH: B2 VH with H108A
VL: B1 VL with G28H, W55S, V95Y
B29: CM-89 (antibody, human IgG4 S228P, lambda, V domains shown)
VH: B2 VH with H108A
VL: B1 VL with W55S, V95Y
B30: CM-99 (antibody, human IgG4 S228P, lambda, V domains shown)
VH: B2 VH with T58H, H108A
VL: B1 VL with W55S
B31: CM-104 (antibody, human IgG4 S228P, lambda, V domains shown)
VH: B2 VH with T58H, H108A
VL: B1 VL with W55S, V95Y
B32: CM-112 (antibody, human IgG4 S228P, lambda, V domains shown)
VH: B2 VH with D31S, T58H, H108A
VL: B1 VL with G28H, W55S
B33: CM-90 (antibody, human IgG4 S228P, lambda, V domains shown)
VH: B2 VH with H108A
VL: B1 VL with G28H, W55S
B34: CM-103 (antibody, human IgG4 S228P, lambda, V domains shown)
VH: B2 VH with T58H, H108A
VL: B1 VL with W55S, V95R
B35: CM-85 (antibody, human IgG4 S228P, lambda, V domains shown)
VH: B2 VH with F27Y, D31S, H108A
VL: B1 VL with W55S
B36: CM-87 (antibody, human IgG4 S228P, lambda, V domains shown)
VH: B2 VH with H108A
VL: B1 VL with W55S, V95W
B37: CM-86 (antibody, human IgG4 S228P, lambda, V domains shown)
VH: B2 VH with D31S, Y32H, H108A
VL: B1 VL with W55S
B38: CM-111 (antibody, human IgG4 S228P, lambda, V domains shown)
VH: B2 VH with D31S, S54H, H108A
VL: B1 VL with S33A, W55S

Residue numbers refer to the chain shown, from its start.

The assay has as its target T1, human S100A8/A9 heterodimeric antigen, …. Nature of the assay: cell-based or functional assay.
In the case of B1, the “Relative IC50 (IC50 relative to CM-1), IL-6 release from hS100A8/A9-activated human PBMCs” value (shortened to “Relative IC50”) is 0.156 relative to CM-1.

Consider B2, for which the “Relative IC50” value was 1.63 relative to CM-1.

Turning to B3, the “Relative IC50” value was 1.11 relative to CM-1.

On to B4, for which the “Relative IC50” value was 0.442 relative to CM-1.

For B5, the “Relative IC50” value is 0.878 relative to CM-1.

Take B6: the “Relative IC50” value is 1.12 relative to CM-1.

In the case of B7, the “Relative IC50” value is 1.34 relative to CM-1.

As to B8, the “Relative IC50” value was 0.464 relative to CM-1.

B9: the “Relative IC50” value is 1.1 relative to CM-1.

For B10, the “Relative IC50” value was 0.475 relative to CM-1.

For the molecule B11, the “Relative IC50” value was 0.352 relative to CM-1.

B12: the “Relative IC50” value is 1.5 relative to CM-1.

B13: the “Relative IC50” value was 2.81 relative to CM-1.

For B14, the “Relative IC50” value is 0.367 relative to CM-1.

Regarding B15, the “Relative IC50” value was 2.48 relative to CM-1.

Regarding B16, the “Relative IC50” value is 0.986 relative to CM-1.

With B17, the “Relative IC50” value is 0.683 relative to CM-1.

In the case of B18, the “Relative IC50” value was 0.393 relative to CM-1.

For B19, the “Relative IC50” value was 1.47 relative to CM-1.

Consider B20, for which the “Relative IC50” value was 0.599 relative to CM-1.

As for B21, the “Relative IC50” value was 1.01 relative to CM-1.

On to B22, for which the “Relative IC50” value was 0.703 relative to CM-1.

Consider B23, for which the “Relative IC50” value was 0.386 relative to CM-1.

With B24, the “Relative IC50” value was 1.5 relative to CM-1.

Take B25: the “Relative IC50” value is 0.953 relative to CM-1.

Turning to B26, the “Relative IC50” value was 0.899 relative to CM-1.

On to B27, for which the “Relative IC50” value was 1.37 relative to CM-1.

Turning to B28, the “Relative IC50” value is 0.697 relative to CM-1.

In the case of B29, the “Relative IC50” value was 0.572 relative to CM-1.

Turning to B30, the “Relative IC50” value was 1.3 relative to CM-1.

As for B31, the “Relative IC50” value was 1.76 relative to CM-1.

On to B32, for which the “Relative IC50” value is 0.738 relative to CM-1.

Take B33: the “Relative IC50” value is 1.54 relative to CM-1.

In the case of B34, the “Relative IC50” value is 0.687 relative to CM-1.

As to B35, the “Relative IC50” value is 1.86 relative to CM-1.

For the molecule B36, the “Relative IC50” value is 0.749 relative to CM-1.

For B37, the “Relative IC50” value was 1.27 relative to CM-1.

Regarding B38, the “Relative IC50” value is 1.08 relative to CM-1.

Values taken from patent US20260184777A1 (BEIJING SUNGEN BIOMEDICAL TECHNOLOGY, published 2026).
